Columns and labels:
[1] = molecular target: His/TF-tagged-XBP1s (recombinant XBP1s fusion protein purified from E. coli) (UniProt O35426)
[2] = system: GST-ATF2 fusion protein (Cell Signaling)

activated recombinant p38α MAPK (Cell Signaling)
in vitro kinase assay, immunoblotting with phospho-specific antibodies for p-XBP1s^Thr48 and p-XBP1s^Ser61 [1]: p38 MAPK directly phosphorylates XBP on Thr48 and Ser61 residues in the in vitro kinase assay | in vitro kinase assay, incorporated 32P (phosphorylation) by autoradiography [1]: Incubation of XBP1s with activated recombinant p38 MAPK significantly increased phosphorylation of XBP1s | in vitro kinase assay, phosphorylation of the control substrate [2]: activated recombinant p38 MAPK is fully functional and phosphorylates ATF2

Source: US20140363416
